From the supplement of paper PMC10065799, “High-throughput profiling of sequence recognition by tyrosine kinases and SH2 domains using bacterial peptide display” (eLife, 2023)

Assays:
c-Src SH2 = test: SH2 binding enrichment of the phosphorylated peptide, bacterial display (enrichment ratio); higher = better substrate or ligand; peptides without Tyr show the background
SHP2-C SH2 = test: as above
Grb2 SH2 = Grb2 SH2 (UniProt P62993); test: as above
EPHB1 = EPHB1 (UniProt P54762); test: phosphorylation enrichment, bacterial display (enrichment ratio); higher = better substrate or ligand; peptides without Tyr show the background
Sequence of EPHB1 (P54762 whole entry, looked up): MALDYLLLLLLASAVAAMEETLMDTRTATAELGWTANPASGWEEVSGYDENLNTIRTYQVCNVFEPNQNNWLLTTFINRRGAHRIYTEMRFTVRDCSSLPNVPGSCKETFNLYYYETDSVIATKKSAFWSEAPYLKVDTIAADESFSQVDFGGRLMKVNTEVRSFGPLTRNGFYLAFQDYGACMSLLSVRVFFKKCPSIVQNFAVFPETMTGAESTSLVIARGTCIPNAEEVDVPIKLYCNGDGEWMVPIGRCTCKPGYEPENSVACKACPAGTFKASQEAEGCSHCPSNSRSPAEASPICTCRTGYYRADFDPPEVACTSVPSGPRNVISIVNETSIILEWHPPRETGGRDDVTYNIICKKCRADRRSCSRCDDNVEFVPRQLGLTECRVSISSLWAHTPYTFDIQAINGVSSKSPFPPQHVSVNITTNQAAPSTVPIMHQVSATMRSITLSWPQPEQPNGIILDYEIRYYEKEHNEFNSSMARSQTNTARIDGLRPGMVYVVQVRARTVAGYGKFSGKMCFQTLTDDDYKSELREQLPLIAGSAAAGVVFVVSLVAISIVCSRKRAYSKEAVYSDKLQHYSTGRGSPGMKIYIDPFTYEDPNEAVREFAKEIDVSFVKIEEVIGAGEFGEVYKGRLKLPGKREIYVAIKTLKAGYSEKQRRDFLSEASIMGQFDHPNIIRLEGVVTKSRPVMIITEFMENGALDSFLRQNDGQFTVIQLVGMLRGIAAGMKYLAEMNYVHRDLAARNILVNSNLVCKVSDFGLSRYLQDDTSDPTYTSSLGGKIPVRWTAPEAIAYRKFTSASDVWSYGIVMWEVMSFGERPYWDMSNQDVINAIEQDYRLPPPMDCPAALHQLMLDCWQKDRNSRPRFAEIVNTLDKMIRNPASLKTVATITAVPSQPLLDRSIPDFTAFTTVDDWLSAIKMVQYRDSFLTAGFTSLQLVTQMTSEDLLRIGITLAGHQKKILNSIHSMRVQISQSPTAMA

EPHB2 = EPHB2 (UniProt P29323); test: as above
MERTK = MERTK (UniProt Q12866); test: as above
Hck = Hck (UniProt P08631); test: as above
Sequence of Hck (P08631 whole entry, looked up): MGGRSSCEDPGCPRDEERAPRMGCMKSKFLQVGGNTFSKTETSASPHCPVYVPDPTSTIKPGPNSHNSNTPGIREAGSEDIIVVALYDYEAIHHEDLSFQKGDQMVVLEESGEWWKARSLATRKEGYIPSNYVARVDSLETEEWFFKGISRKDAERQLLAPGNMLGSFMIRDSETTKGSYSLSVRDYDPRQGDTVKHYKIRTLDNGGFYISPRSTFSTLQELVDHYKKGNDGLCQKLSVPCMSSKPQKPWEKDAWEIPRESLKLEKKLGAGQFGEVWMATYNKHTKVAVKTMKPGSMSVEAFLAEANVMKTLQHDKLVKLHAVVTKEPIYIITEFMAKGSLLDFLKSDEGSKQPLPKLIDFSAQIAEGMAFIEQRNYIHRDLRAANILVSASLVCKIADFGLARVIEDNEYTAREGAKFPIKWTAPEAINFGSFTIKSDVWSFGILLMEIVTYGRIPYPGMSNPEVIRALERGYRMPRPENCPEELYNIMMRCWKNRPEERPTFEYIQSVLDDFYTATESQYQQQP

Fyn = Fyn (UniProt P06241); test: as above
Sequence of Fyn (P06241 whole entry, looked up): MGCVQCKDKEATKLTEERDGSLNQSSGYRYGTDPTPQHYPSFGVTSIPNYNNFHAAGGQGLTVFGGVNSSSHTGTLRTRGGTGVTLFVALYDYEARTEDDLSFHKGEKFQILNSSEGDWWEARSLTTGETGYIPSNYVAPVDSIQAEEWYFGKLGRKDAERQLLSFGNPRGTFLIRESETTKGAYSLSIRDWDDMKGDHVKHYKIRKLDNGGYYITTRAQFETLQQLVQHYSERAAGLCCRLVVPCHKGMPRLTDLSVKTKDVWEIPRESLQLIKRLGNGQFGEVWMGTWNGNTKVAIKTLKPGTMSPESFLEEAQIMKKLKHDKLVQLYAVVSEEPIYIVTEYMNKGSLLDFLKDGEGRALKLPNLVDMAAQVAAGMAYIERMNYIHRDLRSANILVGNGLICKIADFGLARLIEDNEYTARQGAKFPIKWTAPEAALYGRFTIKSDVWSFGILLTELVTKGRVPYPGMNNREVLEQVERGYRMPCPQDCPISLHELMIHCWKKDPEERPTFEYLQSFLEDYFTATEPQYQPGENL

c-Src = test: as above
c-Abl (mouse) = test: as above
FGFR1 = FGFR1 (UniProt P11362); test: as above
Sequence of FGFR1 (P11362 whole entry, looked up): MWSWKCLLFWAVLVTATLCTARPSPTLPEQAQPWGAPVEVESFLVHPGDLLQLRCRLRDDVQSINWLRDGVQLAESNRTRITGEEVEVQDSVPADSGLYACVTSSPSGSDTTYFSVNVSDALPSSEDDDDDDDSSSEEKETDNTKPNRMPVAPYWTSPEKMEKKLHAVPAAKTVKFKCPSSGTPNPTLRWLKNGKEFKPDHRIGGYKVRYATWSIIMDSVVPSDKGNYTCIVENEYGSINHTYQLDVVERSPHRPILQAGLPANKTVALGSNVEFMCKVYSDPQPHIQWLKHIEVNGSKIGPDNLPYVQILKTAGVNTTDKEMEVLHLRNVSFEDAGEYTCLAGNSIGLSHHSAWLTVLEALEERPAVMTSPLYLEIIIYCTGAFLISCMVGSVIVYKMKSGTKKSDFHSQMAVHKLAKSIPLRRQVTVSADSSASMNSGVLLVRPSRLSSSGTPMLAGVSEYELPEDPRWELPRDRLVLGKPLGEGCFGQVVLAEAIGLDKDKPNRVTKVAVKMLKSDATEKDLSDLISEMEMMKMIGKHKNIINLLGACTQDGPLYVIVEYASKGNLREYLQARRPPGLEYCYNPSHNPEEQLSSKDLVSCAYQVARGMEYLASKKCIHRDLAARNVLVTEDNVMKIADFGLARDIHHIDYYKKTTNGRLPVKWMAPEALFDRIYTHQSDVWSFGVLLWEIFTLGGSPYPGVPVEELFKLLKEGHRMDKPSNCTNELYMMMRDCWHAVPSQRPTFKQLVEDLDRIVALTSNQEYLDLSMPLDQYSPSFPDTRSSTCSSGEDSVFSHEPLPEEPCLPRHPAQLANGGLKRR

Jak2 = Jak2 (UniProt O60674); test: as above
Sequence of Jak2 (O60674 whole entry, looked up): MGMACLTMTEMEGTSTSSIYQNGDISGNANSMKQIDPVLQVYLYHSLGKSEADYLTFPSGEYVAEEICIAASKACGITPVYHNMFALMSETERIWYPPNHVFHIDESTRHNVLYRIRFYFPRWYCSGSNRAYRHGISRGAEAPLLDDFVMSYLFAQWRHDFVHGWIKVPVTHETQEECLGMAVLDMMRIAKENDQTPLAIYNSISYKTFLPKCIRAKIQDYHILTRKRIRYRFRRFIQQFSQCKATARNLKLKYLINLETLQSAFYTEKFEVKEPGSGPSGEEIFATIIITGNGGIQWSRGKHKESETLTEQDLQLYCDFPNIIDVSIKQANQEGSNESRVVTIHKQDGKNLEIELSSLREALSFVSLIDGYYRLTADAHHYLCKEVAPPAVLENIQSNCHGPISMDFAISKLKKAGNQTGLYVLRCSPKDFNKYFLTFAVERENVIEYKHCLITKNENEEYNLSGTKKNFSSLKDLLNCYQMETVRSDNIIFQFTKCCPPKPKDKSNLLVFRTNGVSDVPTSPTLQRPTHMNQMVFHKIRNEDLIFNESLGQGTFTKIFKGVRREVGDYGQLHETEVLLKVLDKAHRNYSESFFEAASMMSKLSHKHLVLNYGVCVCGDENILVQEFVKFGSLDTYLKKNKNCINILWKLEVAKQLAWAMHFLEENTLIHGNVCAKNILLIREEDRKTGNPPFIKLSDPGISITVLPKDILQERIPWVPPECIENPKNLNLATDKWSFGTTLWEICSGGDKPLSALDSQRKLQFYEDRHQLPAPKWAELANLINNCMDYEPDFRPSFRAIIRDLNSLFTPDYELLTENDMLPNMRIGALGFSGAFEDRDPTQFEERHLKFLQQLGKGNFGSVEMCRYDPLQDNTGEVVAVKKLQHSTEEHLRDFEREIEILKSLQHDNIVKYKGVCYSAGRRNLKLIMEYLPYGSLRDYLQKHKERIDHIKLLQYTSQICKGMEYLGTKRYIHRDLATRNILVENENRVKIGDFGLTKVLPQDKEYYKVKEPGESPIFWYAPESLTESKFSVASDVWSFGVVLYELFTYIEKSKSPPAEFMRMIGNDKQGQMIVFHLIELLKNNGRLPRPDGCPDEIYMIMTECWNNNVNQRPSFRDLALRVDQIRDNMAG

Fer (mouse) = test: as above
FGFR3 = FGFR3 (UniProt P22607); test: as above
Sequence of FGFR3 (P22607 whole entry, looked up): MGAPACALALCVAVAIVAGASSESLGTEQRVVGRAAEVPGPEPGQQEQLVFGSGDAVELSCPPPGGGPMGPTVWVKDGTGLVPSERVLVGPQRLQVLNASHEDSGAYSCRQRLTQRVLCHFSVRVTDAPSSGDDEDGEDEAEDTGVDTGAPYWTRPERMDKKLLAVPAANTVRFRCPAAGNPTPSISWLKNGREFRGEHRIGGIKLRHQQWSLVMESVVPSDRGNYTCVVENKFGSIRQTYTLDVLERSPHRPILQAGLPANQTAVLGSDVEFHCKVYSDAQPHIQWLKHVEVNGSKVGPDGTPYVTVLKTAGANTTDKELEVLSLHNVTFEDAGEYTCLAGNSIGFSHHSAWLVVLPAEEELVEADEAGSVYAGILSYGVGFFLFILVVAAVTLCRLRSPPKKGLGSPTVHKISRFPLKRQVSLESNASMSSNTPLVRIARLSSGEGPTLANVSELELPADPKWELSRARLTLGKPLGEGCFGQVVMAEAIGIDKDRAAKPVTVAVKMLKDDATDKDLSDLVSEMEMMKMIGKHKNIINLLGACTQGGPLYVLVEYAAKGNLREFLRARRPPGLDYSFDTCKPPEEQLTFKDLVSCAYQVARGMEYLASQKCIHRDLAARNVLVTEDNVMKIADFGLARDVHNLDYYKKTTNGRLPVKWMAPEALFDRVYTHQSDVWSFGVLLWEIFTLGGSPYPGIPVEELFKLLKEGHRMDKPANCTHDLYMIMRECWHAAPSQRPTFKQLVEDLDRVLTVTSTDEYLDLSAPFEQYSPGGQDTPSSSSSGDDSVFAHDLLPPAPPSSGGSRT

AncSZ = test: as above
Fes = Fes (UniProt P07332); test: as above
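Throughout, for SH2 binding enrichment of the phosphorylated peptide, bacterial display: peptide library displayed on the E. coli surface as eCPX fusions, selected cells deep-sequenced, score is each peptide's frequency after selection divided by its frequency in the input.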
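Throughout, for phosphorylation enrichment, bacterial display: 11-residue human phosphosite peptides and single-mutation variants displayed on the E. coli surface, counted by deep sequencing, each peptide's frequency after selection divided by its frequency in the unselected input library; frequency after pTyr selection over input frequency; kinase dosed for 20-30% of maximal phosphorylation in three min.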

Sequence of Grb2 SH2 (P62993 whole entry, looked up): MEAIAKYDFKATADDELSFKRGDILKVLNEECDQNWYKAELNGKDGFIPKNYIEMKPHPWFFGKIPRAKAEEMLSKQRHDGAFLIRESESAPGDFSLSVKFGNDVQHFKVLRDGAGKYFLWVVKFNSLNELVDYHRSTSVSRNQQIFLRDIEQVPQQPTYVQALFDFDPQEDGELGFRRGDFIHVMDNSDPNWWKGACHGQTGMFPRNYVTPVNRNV

Row | Sequence | SH2 binding enrichment (c-Src SH2) | SH2 binding enrichment (SHP2-C SH2) | SH2 binding enrichment (Grb2 SH2) | phosphorylation enrichment (EPHB1) | phosphorylation enrichment (EPHB2) | phosphorylation enrichment (MERTK) | phosphorylation enrichment (Hck) | phosphorylation enrichment (Fyn) | phosphorylation enrichment (c-Src) | phosphorylation enrichment (c-Abl (mouse)) | phosphorylation enrichment (FGFR1) | phosphorylation enrichment (Jak2) | phosphorylation enrichment (Fer (mouse)) | phosphorylation enrichment (FGFR3) | phosphorylation enrichment (AncSZ) | phosphorylation enrichment (Fes)
1 | AAESTYDKILK [GDNF_Y156_T154S] | 5.23 | 0.672 | 1.08 | 0.463 | 0.508 | 0.401 | 1.75 | 0.76 | 0.719 | 0.563 | 0.391 | 0.682 | 0.418 | 0.586 | 0.681 | 0.886
2 | AAPAAYDAADT [GAMT_Y27] | 1.11 | 0.654 | 0.839 | 0.479 | 0.5 | 0.461 | 0.495 | 0.522 | 0.513 | 0.782 | 0.529 | 0.857 | 0.526 | 0.683 | 1.1 | 0.97
3 | AASTDYNKRGD [PDHA1_Y242_Y243N] | 0.567 | 0.574 | 0.754 | 0.453 | 0.313 | 0.453 | 0.509 | 0.37 | 0.618 | 0.67 | 0.452 | 0.515 | 0.386 | 0.451 | 0.578 | 0.505
4 | AATTAYSKPKQ [MAP3K7_Y405_R410Q] | 0.477 | 0.57 | 0.648 |  |  |  |  |  | 0.063 | 0.121 |  | 0.257 |  |  |  | 
5 | AAVDTYCRHNY [HLA-DRB1_Y107] | 0.516 | 0.777 | 0.731 | 0.507 | 0.527 | 0.479 | 0.531 | 0.548 | 0.461 | 0.755 | 0.451 | 0.911 | 0.442 | 0.571 | 0.871 | 0.914
6 | ACQGKYTPSSQ [ALDOA_Y343_G347S] | 0.553 | 0.887 | 0.928 | 0.346 | 0.389 | 0.404 | 0.417 | 0.433 | 0.449 | 0.392 | 0.362 | 0.421 | 0.425 | 0.466 | 0.542 | 0.579
7 | ACQSLYGGFVE [MVD_Y164_R161Q] | 0.628 | 0.735 | 0.902 | 0.719 | 1.53 | 1.14 | 8.54 | 11.1 | 7.59 | 0.7 | 0.567 | 0.775 | 0.744 | 0.665 | 0.949 | 0.945
8 | ADCRFYAFPQM [GAMT_Y223_YF] | 0.526 | 0.653 | 0.778 | 3.25 | 3.79 | 7.18 | 0.92 | 0.76 | 1.35 | 2.39 | 0.719 | 1.45 | 6.04 | 1.03 | 2.44 | 1.57
9 | ADDSFYTVRSA [ZAP70_Y493_A495V_YF] | 0.466 | 0.556 | 0.701 | 0.439 | 0.478 | 0.552 | 1.22 | 1.21 | 1.53 | 0.734 | 0.444 | 0.829 | 0.489 | 0.748 | 0.884 | 0.999
10 | ADLVQYYMEHH [PTPN11_Y80_E76D] | 0.714 | 0.919 | 0.796 | 1.16 | 0.806 | 0.642 | 0.967 | 0.668 | 0.84 | 0.751 | 1.04 | 0.914 | 0.464 | 1.18 | 1.18 | 1.12
11 | ADRAAYLQNLN [MYH1_Y389_K386R] | 0.403 | 0.552 | 0.719 | 0.563 | 0.338 | 0.362 | 0.334 | 0.336 | 0.42 | 0.679 | 0.629 | 0.604 | 0.364 | 0.441 | 0.604 | 0.699
12 | AEDEDYESVGA [SYKtide_2014] | 0.589 | 0.975 | 0.852 | 0.815 | 0.672 | 0.49 | 0.658 | 0.586 | 0.616 | 0.938 | 0.62 | 1.26 | 0.655 | 0.937 | 1.29 | 1.44
13 | AELVPYYMEHH [PTPN11_Y80_Q79P] | 1.19 | 1.49 | 0.963 | 0.778 | 0.635 | 0.552 | 0.736 | 0.626 | 1.28 | 0.733 | 0.822 | 0.757 | 0.513 | 0.792 | 0.916 | 0.995
14 | AEPPDYSPVTH [ADGRG2_Y285] | 0.477 | 0.611 | 0.836 | 0.817 | 0.582 | 0.491 | 0.598 | 0.542 | 0.417 | 0.792 | 0.54 | 0.836 | 0.764 | 0.786 | 1.66 | 1.06
15 | AEVIWYKGDEE | 0.446 | 0.531 | 1.11 | 0.41 | 0.483 | 0.343 | 0.414 | 0.369 | 0.303 | 0.616 | 0.359 | 1.08 | 0.342 | 0.636 | 1.26 | 1.07
16 | AFGNLYGSRKQ [YIPF7_Y59_YF] | 0.35 | 0.376 | 0.788 | 0.357 | 0.531 | 0.519 | 2.93 | 0.718 | 1.09 | 0.657 | 0.397 | 0.505 | 0.409 | 0.398 | 0.526 | 0.55
17 | AFPVSYSSPGA [RET_Y687_S690P] | 0.615 | 0.679 | 0.685 | 0.442 | 0.478 | 0.512 | 0.422 | 0.518 | 0.475 | 0.572 | 0.423 | 0.508 | 0.468 | 0.466 | 0.704 | 0.616

Row | Sequence | SH2 binding enrichment (c-Src SH2) | SH2 binding enrichment (SHP2-C SH2) | SH2 binding enrichment (Grb2 SH2) | phosphorylation enrichment (EPHB1) | phosphorylation enrichment (EPHB2) | phosphorylation enrichment (MERTK) | phosphorylation enrichment (Hck) | phosphorylation enrichment (Fyn) | phosphorylation enrichment (c-Src) | phosphorylation enrichment (c-Abl (mouse)) | phosphorylation enrichment (FGFR1) | phosphorylation enrichment (Jak2) | phosphorylation enrichment (Fer (mouse)) | phosphorylation enrichment (FGFR3) | phosphorylation enrichment (AncSZ) | phosphorylation enrichment (Fes)
18 | AGAIIYTSRFQ [PFAS_Y538] | 0.464 | 1.1 | 1.08 | 0.486 | 0.674 | 0.568 | 0.76 | 0.58 | 0.929 | 0.72 | 0.398 | 0.686 | 0.506 | 0.504 | 0.748 | 0.839
19 | AGEGSYALDSE [PES1_Y265_T264S] | 0.668 | 0.649 | 0.977 | 0.461 | 0.629 | 0.568 | 0.747 | 0.946 | 0.538 | 0.64 | 0.644 | 1.05 | 0.608 | 0.719 | 1.24 | 1.19
20 | AGEGTYALDSE [PES1_Y265] | 0.617 | 0.435 | 0.928 | 0.576 | 0.511 | 0.434 | 0.528 | 0.984 | 0.935 | 0.816 | 0.484 | 0.878 | 0.5 | 0.643 | 0.972 | 1.04
21 | AGQEDYDRLRS [RHOA_Y66_P71S] | 0.554 | 0.657 | 0.596 | 0.582 | 0.513 | 0.466 | 0.638 | 0.555 | 0.609 | 0.741 | 0.475 | 1.05 | 0.795 | 0.639 | 0.96 | 1.38
22 | AHAGEYGADAL [HBA1_Y25_E28D] | 0.448 | 0.61 | 0.708 | 0.401 | 0.416 | 0.373 | 0.436 | 0.414 | 0.357 | 0.776 | 0.392 | 0.578 | 0.312 | 0.41 | 0.606 | 0.653
23 | AIDVGYRHIDC [AKR1B1_Y40] | 0.98 | 1.12 | 1.04 | 0.419 | 0.531 | 0.366 | 0.457 | 0.466 | 0.411 | 0.629 | 0.476 | 0.635 | 0.44 | 0.622 | 0.637 | 0.844
24 | AIFRRYSKFFD [SH3PXD2B_Y45_YF] | 0.475 | 0.572 | 0.56 | 0.526 | 0.565 | 0.572 | 0.54 | 0.582 | 0.626 | 0.773 | 0.598 | 1.04 | 0.408 | 0.587 | 1.03 | 1.13
25 | AKFLGYPPPEI [KDR_Y357_YF] | 0.476 | 0.619 | 0.794 | 0.474 | 0.413 | 0.412 | 0.488 | 0.426 | 0.436 | 0.627 | 0.499 | 0.565 | 0.459 | 0.609 | 0.773 | 0.902
26 | AKVKPYVNGTS [IBTK_Y1064] | 0.559 | 0.878 | 1.11 | 0.41 | 0.419 | 0.357 | 0.402 | 0.486 | 0.412 | 0.778 | 0.421 | 0.58 | 0.461 | 0.47 | 0.606 | 0.559
27 | ALAHKYRGGGG [HBD_Y146_H147R] | 0.535 | 0.598 | 0.804 | 0.311 | 0.362 | 0.309 | 0.333 | 0.335 | 0.432 | 0.471 | 0.422 | 0.351 | 0.315 | 0.364 | 0.404 | 0.495
28 | ALTRSYIRERV [CYP2C8_Y243_K247R] | 0.395 | 0.51 | 0.607 | 0.373 | 0.457 | 0.391 | 0.493 | 0.334 | 0.451 | 0.458 | 0.421 | 0.58 | 0.373 | 0.423 | 0.768 | 0.536
29 | ALVFLYFCIIF [SIGLEC12_Y494] | 1.36 | 1.48 | 1.91 | 0.397 | 0.483 | 0.636 | 0.964 | 0.552 | 0.741 | 0.957 | 0.58 | 1.01 | 0.6 | 0.803 | 1.04 | 1.16
30 | ANQDDHISFRH [IMP4_Y226_Y226H] | 0.502 | 0.512 | 1.02 | 0.518 | 0.497 | 0.453 | 0.501 | 0.419 | 0.611 | 0.912 | 0.456 | 0.833 | 0.416 | 0.535 | 0.852 | 0.903
31 | ANSSFYSTRSA [NUMA1_Y1836] | 0.412 | 0.659 | 0.713 | 0.405 | 0.365 | 0.523 | 1.07 | 0.513 | 0.468 | 0.644 | 0.425 | 0.575 | 0.356 | 0.41 | 0.56 | 0.568
32 | APTSGYQEFIH [IL4R_Y575_V579I] | 3.98 | 0.5 | 0.878 | 0.424 | 0.582 | 0.429 | 0.461 | 0.504 | 0.442 | 0.527 | 0.572 | 0.684 | 0.416 | 0.679 | 0.717 | 0.82
33 | ARGMEYLASKN [FGFR1_Y613_K618N] | 0.524 | 0.557 | 1.03 | 0.285 | 0.32 | 0.355 | 0.337 | 0.327 | 0.394 | 0.385 | 0.407 | 0.463 | 0.271 | 0.447 | 0.452 | 0.511
34 | LVKDGYQTAQP [CSF1R_Y873_M875T] | 1.35 | 0.307 | 0.909 |  |  |  |  |  | 1.29 | 0.544 |  | 1.27 |  |  |  | 
